The results in this text go back to PMC8441738 (MedComm, 2021).

In the assay the target is recombinant SARS-CoV-2 RBD-Fc (Severe acute respiratory syndrome …, UniProt P0DTC2). In words: ELISA; natural RBD-Fc immobilised on ELISA plates. (In general: ELISA stands for enzyme-linked immunosorbent assay.)

B1: MA1 monoclonal antibody (antibody, V domains shown)
VH: QVQLKESGPGLVAPSQSLSITCTVSGFSLSDYSISWIRQPPGKGLEWLGVIWGGGSTYYNSALKSRLSISKDNSKSQVFLKMNSLQTDDTAMYYCAKHPLYYGSNSDGYYAMDYWGQGTSVTVSS
VL: DIVMTQSHKFMSTSVGDRVSITCKASQDVGIVVAWYQQKPGQSPKLLIYWASTRHTGVPDRFTGSGSGTDFTLTISNVQSEDLADYFCQQYSSYPLTFGGGTKLEIK
notes: also called group I mAb; source: hybridoma cell line or transfection of linear expression cassettes
For B1, the binding result is recorded as “binds”.

B2: MA5 monoclonal antibody (antibody, V domains shown)
VH: EVMLVESGGGLVKPGGSLKLSCAASGFMFSRYAMSWVRQTPEKRLEWVATISSGGSYTYYPDSVKGRFTMSRDNAKNTLYLQMSSLRSEDTAMYNCARHDGNYVDYAMDYWGQGTSVTVSS
VL: QIVLTQSPAIMSASLGEEITLTCSASSSVSHMHWYQQKSGTSPKLLIYSTFNLASGVPSRFSGSGSGTFYSLTISSVEAEDAADYYCHQWSSWTFGGGTKLEIK
notes: also called group IV mAb; source: hybridoma cell line or transfection of linear expression cassettes
For B2, the binding result is “binds”.
